Laboratory results reported in PMC11827629.

Columns and labels:
[1] = biological target: T1, thrombin, N-terminally 2PCA-labeled (Cy5, biotin) (UniProt P00734;P00734 328-363;364-622); assay: single-molecule FRET (koff/kon); koff 0.1 +/- 0.1 s-1; kon 0.2 +/- 0.1 e8 M-1 s-1; main text gives error 0.7; smFRET: 1x PBS with 2.5 mM PCA, 0.155 U/ul PCD, 1 mM Trolox, 5 nM Cy3-aptamer, 23 +/- 1 C, pH not stated; QCM: PBS, flow 45 +/- 3 ul/min, thrombin 0.06-16.5 nM
human alpha-thrombin [2] = biological target: T2, human alpha-thrombin (Homo sapiens, UniProt P00734;P00734 328-363;364-622); assay: QCM; about twice the sensitivity of RE31; response at 300 pM; release 3.1 +/- 1.05% per 5 min at 16.5 nM; smFRET: 1x PBS with 2.5 mM PCA, 0.155 U/ul PCD, 1 mM Trolox, 5 nM Cy3-aptamer, 23 +/- 1 C, pH not stated; QCM: PBS, flow 45 +/- 3 ul/min, thrombin 0.06-16.5 nM
[3] = biological target: T1, thrombin, N-terminally 2PCA-labeled …; assay: single-molecule FRET (koff/kon); koff 0.7 +/- 0.1 s-1; kon 0.7 +/- 0.1 e8 M-1 s-1; main text gives error 0.8; smFRET: 1x PBS with 2.5 mM PCA, 0.155 U/ul PCD, 1 mM Trolox, 5 nM Cy3-aptamer, 23 +/- 1 C, pH not stated; QCM: PBS, flow 45 +/- 3 ul/min, thrombin 0.06-16.5 nM
[4] = biological target: T1, thrombin, N-terminally 2PCA-labeled …; assay: single-molecule FRET (koff/kon); koff 0.3 +/- 0.1 s-1; kon 1.1 +/- 0.1 e8 M-1 s-1; smFRET: 1x PBS with 2.5 mM PCA, 0.155 U/ul PCD, 1 mM Trolox, 5 nM Cy3-aptamer, 23 +/- 1 C, pH not stated; QCM: PBS, flow 45 +/- 3 ul/min, thrombin 0.06-16.5 nM
human alpha-thrombin [5] = biological target: T2, human alpha-thrombin; assay: QCM; linear 1.65-16.5 nM; no significant change below; release 6.3 +/- 0.6% per 5 min at 16.5 nM; smFRET: 1x PBS with 2.5 mM PCA, 0.155 U/ul PCD, 1 mM Trolox, 5 nM Cy3-aptamer, 23 +/- 1 C, pH not stated; QCM: PBS, flow 45 +/- 3 ul/min, thrombin 0.06-16.5 nM

TTTTTTTCGCCTAGGTTGGGTAGGGTGGTGGCG (structured_DNA) [NU172 single molecule exp.]
Kd [1]: 3.3 nM

TTTTTTTCGCCTAGGTTGGGTAGGGTGGTGGCG (structured_DNA, 5' amino C6) [NU172 QCM exp.]
binding result (human alpha-thrombin [2]): binds

TTTTTTTGGTTGGTGTGGTTGG (structured_DNA) [HD1 single molecule exp.]
Kd [3]: 9.2 nM

TTTTTTTGTGACGTAGGTTGGTGTGGTTGGGGCGTCAC (structured_DNA) [RE31 single molecule exp.]
Kd [4]: 2.9 nM

TTTTTTTGTGACGTAGGTTGGTGTGGTTGGGGCGTCAC (structured_DNA, 5' amino C6) [RE31 QCM exp.]
binding result (human alpha-thrombin [5]): binds
